Measurements published in the supplement of paper PMC9112550, “Optimization of the antimicrobial peptide Bac7 by deep mutational scanning” (BMC Biology, 2022).

Tested on: Escherichia coli TOP10
Test: shrunken log2 fold change of peptide-encoding DNA abundance (4.5 h post-induction vs induction); higher = less antimicrobial activity (less host growth inhibition)
Conditions: time post-induction: 4.5 h; library: site-saturation at positions 5, 18, 19, 20
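Also: peptides expressed intracellularly from a pBAD plasmid library in pooled LB shake-flask culture, induced with 0.3% L-arabinose, DNA abundance read by NGS, three biological replicates, DESeq2 with apeglm shrinkage.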

Sequence	shrunken log2 fold change
RRIRFRPPRLPRPRPRPVGYPRP	-0.129
RRIRERPPRLPRPRPRPVSGPRP	0.386
RRIRGRPPRLPRPRPRPEEHPRP	0.131
RRIRARPPRLPRPRPRPVMCPRP	0.0832
RRIRGRPPRLPRPRPRPCNQPRP	-0.174
RRIRQRPPRLPRPRPRPKNQPRP	-0.214
RRIRKRPPRLPRPRPRPCWSPRP	0.00256
RRIRERPPRLPRPRPRPCKFPRP	-0.214
RRIRIRPPRLPRPRPRPHPKPRP	-0.258
RRIRWRPPRLPRPRPRPMQVPRP	-0.0191
RRIRMRPPRLPRPRPRPWAWPRP	-0.0978
RRIRGRPPRLPRPRPRPPVDPRP	0.953
RRIRNRPPRLPRPRPRPSTLPRP	-0.474
RRIRTRPPRLPRPRPRPPQNPRP	0.329
RRIRARPPRLPRPRPRPAYPPRP	0.106
RRIRERPPRLPRPRPRPCIMPRP	-0.397
RRIRQRPPRLPRPRPRPYRVPRP	-0.00926
RRIRARPPRLPRPRPRPKMHPRP	0.364
RRIRDRPPRLPRPRPRPYSVPRP	-0.0716
RRIRKRPPRLPRPRPRPHANPRP	0.18
RRIRPRPPRLPRPRPRPETQPRP	0.15
RRIRTRPPRLPRPRPRPMHNPRP	-0.503
RRIRFRPPRLPRPRPRPANCPRP	-0.211
RRIRNRPPRLPRPRPRPKPKPRP	0.211
RRIRPRPPRLPRPRPRPTSEPRP	0.0181

Sequence	shrunken log2 fold change
RRIRERPPRLPRPRPRPMWNPRP	-0.0278
RRIRKRPPRLPRPRPRPKMIPRP	-0.0764
RRIRYRPPRLPRPRPRPDWDPRP	-0.543
RRIRRRPPRLPRPRPRPACEPRP	0.192
RRIRERPPRLPRPRPRPIHDPRP	0.0116
RRIRRRPPRLPRPRPRPKFGPRP	0.172
RRIRVRPPRLPRPRPRPSEAPRP	0.0122
RRIRRRPPRLPRPRPRPCPFPRP	0.0522
RRIRLRPPRLPRPRPRPKYIPRP	-0.603
RRIRLRPPRLPRPRPRPCYNPRP	-0.206
RRIRIRPPRLPRPRPRPCADPRP	-0.289
RRIRHRPPRLPRPRPRPKAYPRP	0.0124
RRIRVRPPRLPRPRPRPVDNPRP	-0.663
RRIRVRPPRLPRPRPRPTNGPRP	0.239
RRIRTRPPRLPRPRPRPMCNPRP	-0.249
RRIRIRPPRLPRPRPRPNWGPRP	-0.205
RRIRSRPPRLPRPRPRPEKSPRP	-0.32
RRIRARPPRLPRPRPRPLDWPRP	1
RRIRMRPPRLPRPRPRPYMMPRP	-0.111
RRIRCRPPRLPRPRPRPIWFPRP	0.21
RRIRMRPPRLPRPRPRPFNNPRP	-0.296
RRIRTRPPRLPRPRPRPEMVPRP	0.134
RRIRCRPPRLPRPRPRPRIFPRP	-0.16
RRIRLRPPRLPRPRPRPPDFPRP	-0.0501
RRIRYRPPRLPRPRPRPNWRPRP	0.326

Sequence	shrunken log2 fold change
RRIRQRPPRLPRPRPRPRLKPRP	0.161
RRIRGRPPRLPRPRPRPQWLPRP	0.136
RRIRVRPPRLPRPRPRPIGLPRP	-0.0479
RRIRVRPPRLPRPRPRPTNKPRP	-0.254
RRIRIRPPRLPRPRPRPTHMPRP	0.578
RRIRVRPPRLPRPRPRPHNFPRP	-0.418
RRIRCRPPRLPRPRPRPPLSPRP	0.312
RRIRHRPPRLPRPRPRPYCEPRP	-0.114
RRIRARPPRLPRPRPRPEWRPRP	0.37
RRIRNRPPRLPRPRPRPQFDPRP	0.152
RRIRVRPPRLPRPRPRPEGNPRP	0.00902
RRIRNRPPRLPRPRPRPTDPPRP	0.162
RRIRSRPPRLPRPRPRPKLPPRP	-0.0678
RRIRMRPPRLPRPRPRPLCFPRP	0.562
RRIRPRPPRLPRPRPRPFFIPRP	-0.249
RRIRWRPPRLPRPRPRPPHWPRP	0.592
RRIRCRPPRLPRPRPRPNVEPRP	-0.216
RRIRGRPPRLPRPRPRPWDYPRP	0.183
RRIRWRPPRLPRPRPRPWINPRP	-0.506
RRIRIRPPRLPRPRPRPLQYPRP	-0.591
RRIRNRPPRLPRPRPRPRSHPRP	-0.127
RRIRPRPPRLPRPRPRPLEDPRP	0.492
RRIRRRPPRLPRPRPRPAVWPRP	0.399
RRIRPRPPRLPRPRPRPMNMPRP	-0.668
RRIRRRPPRLPRPRPRPVEHPRP	0.0989

Sequence	shrunken log2 fold change
RRIRKRPPRLPRPRPRPETEPRP	0.0991
RRIRLRPPRLPRPRPRPWVMPRP	-1.02
RRIRFRPPRLPRPRPRPNWMPRP	-0.0436
RRIRMRPPRLPRPRPRPLAMPRP	0.548
RRIRFRPPRLPRPRPRPMANPRP	-0.104
RRIRTRPPRLPRPRPRPSMKPRP	0.00896
RRIRLRPPRLPRPRPRPRAAPRP	0.417
RRIRERPPRLPRPRPRPRVHPRP	0.0407
RRIRERPPRLPRPRPRPSCGPRP	0.0151
RRIRNRPPRLPRPRPRPFIFPRP	-0.373
RRIRQRPPRLPRPRPRPMKQPRP	-0.0134
RRIRKRPPRLPRPRPRPCITPRP	-0.146
RRIRRRPPRLPRPRPRPFQTPRP	0.0413
RRIRWRPPRLPRPRPRPQMFPRP	0.197
RRIRRRPPRLPRPRPRPEPMPRP	0.882
RRIRIRPPRLPRPRPRPKFFPRP	-0.116
RRIRIRPPRLPRPRPRPKGGPRP	0.04
RRIRVRPPRLPRPRPRPCWIPRP	-0.0862
RRIRPRPPRLPRPRPRPFTQPRP	-0.0301
RRIRDRPPRLPRPRPRPQHWPRP	0.122
RRIRLRPPRLPRPRPRPFIEPRP	-0.372
RRIRFRPPRLPRPRPRPSTEPRP	-0.112
RRIRQRPPRLPRPRPRPVINPRP	-0.102
RRIRERPPRLPRPRPRPAWNPRP	0.167
RRIRQRPPRLPRPRPRPIKMPRP	-0.39

Sequence	shrunken log2 fold change
RRIRGRPPRLPRPRPRPAWRPRP	0.934
RRIRKRPPRLPRPRPRPVCWPRP	0.897
RRIRGRPPRLPRPRPRPYRNPRP	-0.39
RRIRWRPPRLPRPRPRPGKIPRP	0.159
RRIRCRPPRLPRPRPRPEEEPRP	0.375
RRIRWRPPRLPRPRPRPIIHPRP	-0.463
RRIRNRPPRLPRPRPRPRPRPRP	0.586
RRIRWRPPRLPRPRPRPCSCPRP	0.0968
RRIRGRPPRLPRPRPRPSFFPRP	0.202
RRIRYRPPRLPRPRPRPNFDPRP	-0.565
RRIRQRPPRLPRPRPRPLIVPRP	-0.149
RRIRDRPPRLPRPRPRPVAKPRP	0.356
RRIRTRPPRLPRPRPRPDRGPRP	-0.252
RRIRDRPPRLPRPRPRPIQGPRP	0.00911
RRIRDRPPRLPRPRPRPADQPRP	0.553
RRIRNRPPRLPRPRPRPNYCPRP	0.0133
RRIRYRPPRLPRPRPRPLNMPRP	-1.33
RRIRSRPPRLPRPRPRPYTIPRP	-0.808
RRIRSRPPRLPRPRPRPECFPRP	3.03
RRIRSRPPRLPRPRPRPREHPRP	0.152
RRIRERPPRLPRPRPRPGYKPRP	-0.11
RRIRHRPPRLPRPRPRPWVRPRP	0.0215
RRIRNRPPRLPRPRPRPAKWPRP	0.112
RRIRLRPPRLPRPRPRPQHEPRP	-0.0398
RRIRQRPPRLPRPRPRPFYAPRP	-0.0278
